Source: patent US20080160574A1 (KOREA ADVANCED INSTITUTE OF SCIENCE AND TECHNOLOGY KAIST, published 2008)

B1: native Ang1 (recombinant FLAG-tagged human angiopoietin-1 with C-terminal Myc and His tags) (ligand)
chain: DYKDDDDKLRYNRIQHGQCAYTFILPEHDGNCRESTTDQYNTNALQRDAPHVEPDFSSQKLQHLEHVMENYTQWLQKLENYIVENMKSEMAQIQQNAVQNHTATMLEIGTSLLSQTAEQTRKLTDVETQVLNQTSRLEIQLLENSLSTYKLEKQLLQQTNEILKIHEKNSLLEHKILEMEGKHKEELDTLKEEKENLQGLVTRQTYIIQELEKQLNRATTNNSVLQKQQLELMDTVHNLVNLCTKEGVLLKGGKREEEKPFRDCADVYQAGFNKSGIYTIYINNMPEPKKVFCNMDVNGGGWTVIQHREDGSLDFQRGWKEYKMGFGNPSGEYWLGNEFIFAITSQRQYMLRIELMDWEGNRAYSQYDRFHIGNEKQNYRLYLKGHTGTAGKQSSLILHGADFSTKDADNDNCMCKCALMLTGGWWFDACGPSNLNGMFYTAGQNHGKLNGIKWHYFKGPSYSLRSTTMMIRPLDFDIQHSGGRSSLEGPRFEQKLISEEDLNMHTGHHHHHH
notes: Multimer of variable sizes under non-reducing conditions; Produced in COS-7 cells; also called nAng1
B2: COMP/CC-Ang1/FD (coiled-coil domain of COMP - fibrinogen domain of Ang1) (ligand)
chain: DYKDDDDKGILDLAPQMLRELQETNAALQDVRELLRQQVKEITFLKNTVMECDACGGSLVNLCTKEGVLLKGGKREEEKPFRDCADVYQAGFNKSGIYTIYINNMPEPKKVFCNMDVNGGGWTVIQHREDGSLDFQRGWKEYKMGFGNPSGEYWLGNEFIFAIYSQRQYMLRIELMDWEGNRAYSQYDRFHIGNEKQNYRLYLKGHTGTAGKQSSLILHGADFSTKDADNDNCMCKCALMLTGGWWFDACGPSNLNGMFYTAGQNHGKLNGIKWHYFKGPSYSLRSTTMMIRPLDF
notes: The end, 312, is worked out from the stated lengths: 16 signal + 8 FLAG + 3 + 45 COMP + 2 + 238 Ang1 Leu261-498; ~180 kDa and ~250 kDa were observed under non-reducing conditions; also called COMP-Ang1/FD; CO/CC-A1/FD
B3: CMP/CC-Ang1/FD (coiled-coil domain of CMP - fibrinogen domain of Ang1) (ligand)
chain: YKDDDDKGILDEDPCECKSIVKFQTKVEELINTLQQKLEAVAKRIEALENKIIGSLVNLCTKEGVLLKGGKREEEKPFRDCADVYQAGFNKSGIYTIYINNMPEPKKVFCNMDVNGGGWTVIQHREDGSLDFQRGWKEYKMGFGNPSGEYWLGNEFIFAIYSQRQYMLRIELMDWEGNRAYSQYDRFHIGNEKQNYRLYLKGHTGTAGKQSSLILHGADFSTKDADNDNCMCKCALMLTGGWWFDACGPSNLNGMFYTAGQNHGKLNGIKWHYFKGPSYSLRSTTMMIRPLDF
notes: The end, 310, is worked out from bases 1-933 including the stop codon; ~140 kDa and ~180 kDa were observed under non-reducing conditions; also called CMP-Ang1/FD; C/CC-A1/FD
B4: GCN4/CC-Ang1/FD (coiled-coil domain of GCN4 - fibrinogen domain of Ang1) (ligand)
chain: DYKDDDDKGILMKQLEDKVEELLSKNYHLENEVARLKKLVGEGSLVNLCTKEGVLLKGGKREEEKPFRDCADVYQAGFNKSGIYTIYINNMPEPKKVFCNMDVNGGGWTVIQHREDGSLDFQRGWKEYKMGFGNPSGEYWLGNEFIFAIYSQRQYMLRIELMDWEGNRAYSQYDRFHIGNEKQNYRLYLKGHTGYAGKQSSLILHGADFSTKDADNDNCMCKCALMLTGGWWFDACGPSNLNGMFYTAGQNHGKLNGIKWHYFKGPSYSLRSTTMMIRPLDF
notes: The end, 298, is worked out from bases 1-897 including the stop codon; ~80 kDa under non-reducing conditions; also called GCN4-Ang1/FD; G/CC-A1/FD
B5: Ang1/FD (truncated Ang1 that contains only the fibrinogen-like domain, amino acids 284-498) (ligand)
chain: RDCADVYQAGFNKSGIYTIYINNMPEPKKVFCNMDVNGGGWTVIQHREDGSLDFQRGWKEYKMGFGNPSGEYWLGNEFIFAIYSQRQYMLRIELMWEGNRAYSQYDRFHIGNEKQNYRLYLKGHTGYAGKQSSLILHGADFSTKDADNDNCMCKCALMLTGGWWFDACGPSNLNGMFYTAGQNHGKLNGIKWHYFKGPSYSLRSTTMMIRPLDF
notes: The range 284-498 is counted on Ang1, not on the entry; also called monomeric Ang1/FD; recombinant Ang1/FD

These binders were tested against T1, soluble Tie2-Fc (fusion of the ectodomain of Tie-2 receptor and the Fc domain of human IgG1, R&D Inc) (human, UniProt Q02763 23-748) (assay: Biacore, Tie2-Fc immobilized on CM5 chip, Fc reference subtracted).
T1 construct: Bought (R&D Inc) for the Biacore assay; human Tie2 would be UniProt Q02763; also called sTie2-Fc; T2; not shown: Fc domain of human IgG1 and any linker
Protocol: (§1) FIGS. 10A-10D show in vitro binding assay between recombinant native Ang1, GCN4-Ang1/FD, CMP-Ang1/FD, or COMP-Ang1/FD and immobilized soluble Tie2-Fc using Biacore assay. Each recombinant protein was passed over a Biacore sensor chip that had extracellular domain of Tie2-Fc and Fc protein covalently coupled to it, followed by dissembling in absence of the recombinant proteins. Concentrations of the recombinant proteins are shown in each panel. Specificity of binding was assessed by subtracting Fc protein binding value from Tie2-Fc binding value during the measurement. Binding of the sensor chip is provided in resonance units (RUs).
(§2) Alternatively, to determine whether the COS-7 cell-derived recombinant proteins of native Ang1, GCN4/CC-Ang1/FD, CMP/CC-Ang1/FD and COMP/CC-Ang1/FD could bind to Tie-2 receptor, standard Biacore analysis was performed by BIA2000 (BIAcore, Inc.). Briefly, 600 ng of Tie-2-Fc receptor protein (R&D Inc), which is a fusion protein composed of the ectodomain of Tie-2 receptor and Fc domain of human IgG1, was immobilized on a Biacore chip (Sensor Chip CM5). As a control, 600 ng of Fc protein, which had only the Fc domain of human IgG1, was also immobilized on the same chip. The binding affinity was obtained by subtracting the response value using Fc protein from the values obtained using the Tie-2-Fc protein.

T1 sequence (Q02763 23-748 limits assumed): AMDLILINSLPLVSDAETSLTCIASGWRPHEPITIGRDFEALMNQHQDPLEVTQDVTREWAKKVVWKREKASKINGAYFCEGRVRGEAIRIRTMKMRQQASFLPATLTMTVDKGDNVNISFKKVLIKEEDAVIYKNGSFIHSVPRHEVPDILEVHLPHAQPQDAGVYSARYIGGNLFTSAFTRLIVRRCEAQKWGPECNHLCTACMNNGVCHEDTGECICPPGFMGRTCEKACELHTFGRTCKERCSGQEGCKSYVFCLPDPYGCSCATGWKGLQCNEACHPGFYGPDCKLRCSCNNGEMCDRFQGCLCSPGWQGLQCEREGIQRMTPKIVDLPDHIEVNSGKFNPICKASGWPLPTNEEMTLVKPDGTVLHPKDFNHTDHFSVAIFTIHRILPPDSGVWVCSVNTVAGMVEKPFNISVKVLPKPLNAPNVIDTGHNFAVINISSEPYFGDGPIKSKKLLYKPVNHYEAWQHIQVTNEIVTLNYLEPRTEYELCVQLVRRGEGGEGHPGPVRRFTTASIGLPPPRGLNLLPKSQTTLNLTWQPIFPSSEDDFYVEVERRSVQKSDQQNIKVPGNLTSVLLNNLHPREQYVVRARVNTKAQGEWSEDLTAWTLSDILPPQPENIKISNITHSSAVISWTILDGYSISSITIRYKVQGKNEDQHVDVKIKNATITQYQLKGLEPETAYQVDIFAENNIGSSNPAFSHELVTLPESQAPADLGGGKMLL

First: B1
Second: B2
The Kd of the first is 2.7-fold lower: 7.5 nM for the first, 20.5 nM for the second.

Going from B3 to B4, the Kd rises from 67 nM to 158 nM (2.4-fold). The first binds more tightly here.

These binders were tested against Tie2 receptor on human umbilical vein endothelial cells (HUVECs) (human, UniProt Q02763 23-1124) (assay: cell-based or functional assay).
Chain of Tie2 receptor on human umbilical vein endothelial cells (HUVECs) (Q02763 23-1124): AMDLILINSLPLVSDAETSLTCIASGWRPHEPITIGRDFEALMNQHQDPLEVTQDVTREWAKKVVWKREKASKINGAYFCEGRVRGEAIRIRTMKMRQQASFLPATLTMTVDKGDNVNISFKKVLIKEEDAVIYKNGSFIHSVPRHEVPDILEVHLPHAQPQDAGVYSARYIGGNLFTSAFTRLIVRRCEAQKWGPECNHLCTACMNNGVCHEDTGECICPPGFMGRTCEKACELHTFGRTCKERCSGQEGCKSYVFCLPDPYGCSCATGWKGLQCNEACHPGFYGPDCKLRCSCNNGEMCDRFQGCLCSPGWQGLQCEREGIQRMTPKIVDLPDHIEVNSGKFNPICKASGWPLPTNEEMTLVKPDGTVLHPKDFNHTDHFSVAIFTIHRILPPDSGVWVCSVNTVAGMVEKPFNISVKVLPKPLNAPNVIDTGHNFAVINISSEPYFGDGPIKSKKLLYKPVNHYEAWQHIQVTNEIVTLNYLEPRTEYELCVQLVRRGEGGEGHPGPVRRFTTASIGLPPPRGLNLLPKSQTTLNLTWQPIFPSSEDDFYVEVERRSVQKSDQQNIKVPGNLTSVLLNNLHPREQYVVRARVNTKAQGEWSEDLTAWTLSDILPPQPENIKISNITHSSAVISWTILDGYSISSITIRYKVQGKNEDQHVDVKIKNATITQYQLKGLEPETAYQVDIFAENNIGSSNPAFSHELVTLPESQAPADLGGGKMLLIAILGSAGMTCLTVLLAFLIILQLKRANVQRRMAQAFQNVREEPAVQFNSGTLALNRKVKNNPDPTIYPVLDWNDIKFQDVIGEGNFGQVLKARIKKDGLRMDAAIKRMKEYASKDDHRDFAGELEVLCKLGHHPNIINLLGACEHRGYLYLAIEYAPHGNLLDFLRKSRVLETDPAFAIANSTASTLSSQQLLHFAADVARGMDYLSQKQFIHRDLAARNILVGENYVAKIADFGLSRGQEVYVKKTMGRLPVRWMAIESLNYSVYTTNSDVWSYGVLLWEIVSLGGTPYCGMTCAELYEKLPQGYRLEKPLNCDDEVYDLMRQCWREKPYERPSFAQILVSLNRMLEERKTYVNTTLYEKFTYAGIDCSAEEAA

First: B1
Second: B2
The “Tie2 phosphorylation (ratio of phospho-Tie2 to Tie2, control buffer = 1)” value of the first is lower: ~3.6 fold for the first, ~8.8 fold for the second.

In the case of B3, the “Tie2 phosphorylation (ratio of phospho-Tie2 to Tie2, control buffer = 1)” value is reported as ~4 fold.

What follows are binders tested against T1, soluble Tie2-Fc (fusion of the …) (assay: Biacore, Tie2-Fc immobilized on CM5 chip).
Protocol: as §1, §2

B1 and B2 cannot be ordered by “concentration at which binding was saturated” value: > 125 nM for the first, > 125 nM for the second.

B3 and B4 are the same in “concentration at which binding was saturated” value: ~30 nM for the first, ~30 nM for the second.

Each binder was assayed against T1, soluble Tie2-Fc (fusion of the …) (assay: protein-A pull-down with sTie2-Fc, anti-FLAG Western blot).
Protocol: Twenty nanograms of each protein was incubated with 100 ng of sTie1-Fc or sTie2-Fc for […], and then, protein-A conjugated agarose beads were added. The precipitate was separated by 10% SDS-PAGE, and electro-blotted on to nitrocellulose membranes. The nitrocellulose membranes were Western blotted with anti-FLAG M1 antibody, washed, and incubated with horseradish peroxidase-conjugated secondary antibody. Signals were visualized by chemiluminescent detection according to the manufacturer's protocol (Amersham Pharmacia Biotech) and chemiluminescence scanner (LAS-1000, Fuji Film, Tokyo). CB, control buffer; PC, positive control of same amount of each recombinant protein without binding.
Twenty nanograms of each recombinant chimeric-Ang1 protein and 100 ng of soluble Tie1-Fc or soluble Tie2-Fc were incubated in 500 μl Tris-buffer solution (50 mM Tris, 100 mM NaCl, pH 7.4) containing 0.02% TritonX-100 at 4° C. for 2 hr. Then, 20 μl of protein-A agarose beads (Oncogene) was added and incubated for another 1 hr at 4° C. The protein-A conjugated samples were washed twice with 1 ml of Tris-buffer containing 0.02% TritonX-100. The samples were eluted with sample buffer, and heat-denatured. The samples were further separated by 10% SDS-PAGE, and electro-blotted on to nitrocellulose membranes, and Western blotted with anti-FLAG M1 antibody to detect the bound recombinant chimeric-Ang1, and further washed and incubated with horseradish peroxidase-conjugated secondary antibody. Signal was visualized by chemiluminescent detection according to the manufacturer's protocol (Amersham Pharmacia Biotech) using chemiluminescence scanner (LAS-1000, Fuji Film, Tokyo). Approximately 75%, 20%, 95% or 100% of native Ang1, GCN4-Ang1/FD, CMP-Ang1/FD, and COMP-Ang1/FD, respectively, bound to sTie2-Fc. In contrast, none of them bound to sTie1-Fc.

First: B1
Second: B2
The “percent of input protein bound” value of the first is lower: ~75% for the first, ~100% for the second.

First: B3
Second: B4
The “percent of input protein bound” value of the first is higher: ~95% for the first, ~20% for the second.

Each binder was assayed against T1, soluble Tie2-Fc (fusion of the …) (assay: binding assay with soluble Tie2 (details not given)).

B5: no binding.
